Assay results taken from patent US20260069656A1, “Nutritive Polypeptides and Formulations Thereof, and Methods of Production and Use Thereof” (Axcella Health Inc., priority 2013, published 2026).

Test: Intact half-life during simulated gastric fluid (SGF) digestion
Details: SGF pH 1.5, pepsin:polypeptide 1:20 w/w, 37° C.; produced in E. coli unless otherwise noted

| Molecule | SGF Half-life (t½) |
| --- | --- |
| SEQID-00418: nutritive polypeptide (protein, Aspergillus niger; strain CBS 513.88 / FGSC A1513) VPRVRRQGASSSFDYKSQIVRGVNLGGWLVTEPWITPSLYDSTGGGAVDEWTLCQILGKDEAQAKLSSHWSSFITQSDFDRMAQAGLNHVRIPIGYWAVAPIDGEPYVSGQIDYLDQAVTWARAAGLKVLVDLHGAPGSQNGFDNSGHRGPIQWQQGDTVNQTMTAFDALARRYAQSDTVTAIEAVNEPNIPGGVNEDGLKNYYYGALADVQRLNPSTTLFMSDGFQPVESWNGFMQGSNVVMDTHHYQVFDTGLLSMSIDDHVKTACSLATQHTMQSDKPVVVGEWTGALTDCAKYLNGVGNAARYDGTYMSTTKYGDCTGKSTGSVADFSADEKANTRRYIEAQLEAYEMKSGWLFWTWKTEGAPGWDMQDLLANQLFPTSPTDRQYPHQCS | 0.2 min |
| SEQID-00418 (E. coli): nutritive polypeptide (protein, Aspergillus niger; strain CBS 513.88 / FGSC A1513) VPRVRRQGASSSFDYKSQIVRGVNLGGWLVTEPWITPSLYDSTGGGAVDEWTLCQILGKDEAQAKLSSHWSSFITQSDFDRMAQAGLNHVRIPIGYWAVAPIDGEPYVSGQIDYLDQAVTWARAAGLKVLVDLHGAPGSQNGFDNSGHRGPIQWQQGDTVNQTMTAFDALARRYAQSDTVTAIEAVNEPNIPGGVNEDGLKNYYYGALADVQRLNPSTTLFMSDGFQPVESWNGFMQGSNVVMDTHHYQVFDTGLLSMSIDDHVKTACSLATQHTMQSDKPVVVGEWTGALTDCAKYLNGVGNAARYDGTYMSTTKYGDCTGKSTGSVADFSADEKANTRRYIEAQLEAYEMKSGWLFWTWKTEGAPGWDMQDLLANQLFPTSPTDRQYPHQCS | 0.5 min |
| SEQID-00420: nutritive polypeptide (protein, Aspergillus niger; strain CBS 513.88 / FGSC A1513) AAAPLEKRSCTFTSASAAKSGKSSCSTITLDNIAVPAGETLDLTGLKKGTTVIFEGETTFGYKEWKGPLISMSGTDITVKQASGAKINCDGARWWDGKGSNGGKTKPKFFQAHKLDQSSITGLKVYNTPVQGFSILADHLTITDVTIDNSAGTSKGHNTDAFDIGQSTYITIDGATVYNQDDCLAINSGEHITFTNGYCDGGHGLSIGSIGGRSDNTVNDVTISNSKVLNSQNGVRIKTIYGKTGTVENVKFEDITLSDISKYGIVVEQDYENGSPTGTPTNGVKVEDITFKKVTGSVKSSGTDIYILCGSGSCSNWTWSGVDVTGGKKSSKCKNVPSGASCSD | 1.2 min |
| SEQID-00546: protein of the 168 nutritive polypeptide library (protein, listed as Saccharomyces cerevisiae, strain ATCC 204508 / S288c) MCSAGGIRRPIQIEEFKTAISGMSDMELAQIKTEIENSINHLQRSNARLGKYIAKLEGADDRLEADDSDDLENIDSGDLALYKDSVRENEIVLNNYNERVDALEQETVYRKTGHGKSKHEVEAKDNTNKGPDVDMDNSNVDVVTPNSIFI | <10 min |
| SEQID-00001: nutritive polypeptide (protein, listed as Gallus gallus) MGSIGAASMEFCFDVFKELKVHHANENIFYCPIAIMSALAMVYLGAKDSTRTQINKVVRFDKLPGFGDSIEAQCGTSVNVHSSLRDILNQITKPNDVYSFSLASRLYAEERYPILPEYLQCVKELYRGGLEPINFQTAADQARELINSWVESQTNGIIRNVLQPSSVDSQTAMVLVNAIVFKGLWEKAFKDEDTQAMPFRVTEQESKPVQMMYQIGLFRVASMASEKMKILELPFASGTMSMLVLLPDEVSGLEQLESIINFEKLTEWTSSNVMEERKIKVYLPRMKMEEKYNLTSVLMAMGITDVFSSSANLSGISSAESLKISQAVHAAHAEINEAGREVVGSAEAGVDAASVSEEFRADHPFLFCIKHIATNAVLFFGRCVSP | 5 min |
